Assay results reported in the RNAGym collection of RNA variant scans (doi:10.7554/elife.80360).

B1: HDV Ribozyme (parent)
chain: GGCCGGCAUGGUCCCAGCCUCCUCGCUGGCGCCGGCUGGGCAACAUUCCGAGGGGACCGUCCCCUCGGUAAUGGCGAAUGGGACCCA

Variants of: B1
Assay: self-cleavage, relative activity (ratio to wild type); higher = more cleavage; co-transcriptional

Variant | self-cleavage
A16G U65G | 1.01
A16G G55A | 0.943
G17A A42G | 0.119
G17C A56C | 0.302
G17A G54A | 0.786
G17A U46C | 0.506
G17U A83G | 0.405
G17U A83C | 0.219
A16G G29A | 0.252
G17A G53U | 0.718
A16U C36U | 0.631
A16C G55A | 0.554
A16G A83G | 0.755
A16G A83C | 0.462
G17C C21U | 0.0923
C18A G76A | 0.0678
G17U G76A | 0.73
A16C G68U | 0.697
A16C G68C | 0.748
G17C A43C | 0.119
G17U A70U | 0.574

Variant | self-cleavage
A16C G38C | 0
A16G C85A | 1.32
G17A G28C | 0.0489
A16C U65C | 0.256
G17U A87U | 0.548
G17U A87G | 0.499
G17U U20A | 0.0378
G17U U20C | 0.0573
A16C G53U | 0.755
G17A A43G | 0.277
G17A G55A | 0.705
G17A C33U | 0.566
A16G G31C | 0.208
G17U A78G | 0.201
G17A G73A | 0.34
A16C C75G | 0.268
G17A C58G | 0.812
G17C U23A | 0.344
G17A C64G | 0.496
G17U G28C | 0.0652
C18A C24A | 0.163

Variant | self-cleavage
C18A C24U | 0.104
A16C U72C | 0.227
G17U G50C | 0.496
G17A C19A | 0.142
G17A C19G | 0
G17U G38U | 0.0369
A16G A42C | 0.0755
A16G C21A | 0
A16G C21G | 0.0875
A16G G52A | 0.975
C18A G25U | 0.162
A16U G17A | 0.712
A16G U46C | 0.293
A16C U23G | 0.688
C18A G68U | 0.147
G17A U23C | 0.462
C18A C32G | 0.0875
C18A C32U | 0.145
A16G A77G | 0.831
A16G A43G | 0.266
A16G C24G | 0.178

Variant | self-cleavage
A16U U69A | 0.911
A16U U69C | 0.643
G17U C30U | 0.716
G17U C75A | 0.198
G17C U47C | 0.519
G17C U47G | 0.217
G17C U47A | 0
A16C G50C | 0.959
A16U C33G | 0.166
A16U C33U | 0.684
A16G G50A | 1.4
A16U C85G | 1.03
A16U C85A | 1.1
A16U C24G | 0.237
A16U C24A | 0.482
G17A U37A | 0.0415
A16G G39C | 0.0791
A16G G80U | 0.208
G17A G25A | 0.117
A16C G67U | 1.17
A16C G67C | 0.692
